Blank lines part the entries; values can stand above or below the substance they belong to.
Columns and labels:
[1] = molecular target: IL-10 (human) (UniProt P22301); test: sandwich microarray in flow cell, chemiluminescence, cytokine 1 ng/ml; Chip 2
[2] = molecular target: IL-10 (human) (UniProt P22301); test: sandwich microarray in flow cell, chemiluminescence, cytokine 1 ng/ml, divided by chip-specific PNA calibration factor; Chip 1
[3] = molecular target: IL-10 (human) (UniProt P22301); test: sandwich microarray in flow cell, chemiluminescence, cytokine 1 ng/ml; AVG of Chips 1-5
[4] = molecular target: IL-10 (human) (UniProt P22301); test: sandwich microarray in flow cell, chemiluminescence, cytokine 1 ng/ml, divided by chip-specific PNA calibration factor; Chip 4
[5] = molecular target: IL-10 (human) (UniProt P22301); test: sandwich microarray in flow cell, chemiluminescence, cytokine 1 ng/ml, divided by chip-specific PNA calibration factor; AVG of Chips 1-5
[6] = molecular target: IL-10 (human) (UniProt P22301); test: sandwich microarray in flow cell, chemiluminescence, cytokine 1 ng/ml, divided by chip-specific PNA calibration factor; Chip 2
[7] = molecular target: IL-10 (human) (UniProt P22301); test: sandwich microarray in flow cell, chemiluminescence, cytokine 1 ng/ml; Chip 4
[8] = molecular target: IL-10 (human) (UniProt P22301); test: sandwich microarray in flow cell, chemiluminescence, cytokine 1 ng/ml, divided by chip-specific PNA calibration factor; Chip 3
[9] = molecular target: IL-10 (human) (UniProt P22301); test: sandwich microarray in flow cell, chemiluminescence, cytokine 1 ng/ml; Chip 3
[10] = molecular target: IL-10 (human) (UniProt P22301); test: sandwich microarray in flow cell, chemiluminescence, cytokine 1 ng/ml; Chip 1
[11] = molecular target: IL-10 (human) (UniProt P22301); test: sandwich microarray in flow cell, chemiluminescence, cytokine 1 ng/ml, divided by chip-specific PNA calibration factor; Chip 5
[12] = molecular target: IL-10 (human) (UniProt P22301); test: sandwich microarray in flow cell, chemiluminescence, cytokine 1 ng/ml; Chip 5
[13] = molecular target: IL-8 (human) (UniProt P10145); test: sandwich microarray in flow cell, chemiluminescence, cytokine 1 ng/ml; Chip 2
[14] = molecular target: IL-8 (human) (UniProt P10145); test: sandwich microarray in flow cell, chemiluminescence, cytokine 1 ng/ml, divided by chip-specific PNA calibration factor; Chip 1
[15] = molecular target: IL-8 (human) (UniProt P10145); test: sandwich microarray in flow cell, chemiluminescence, cytokine 1 ng/ml; AVG of Chips 1-5
[16] = molecular target: IL-8 (human) (UniProt P10145); test: sandwich microarray in flow cell, chemiluminescence, cytokine 1 ng/ml, divided by chip-specific PNA calibration factor; Chip 4
[17] = molecular target: IL-8 (human) (UniProt P10145); test: sandwich microarray in flow cell, chemiluminescence, cytokine 1 ng/ml, divided by chip-specific PNA calibration factor; AVG of Chips 1-5
[18] = molecular target: IL-8 (human) (UniProt P10145); test: sandwich microarray in flow cell, chemiluminescence, cytokine 1 ng/ml, divided by chip-specific PNA calibration factor; Chip 2
[19] = molecular target: IL-8 (human) (UniProt P10145); test: sandwich microarray in flow cell, chemiluminescence, cytokine 1 ng/ml; Chip 4
[20] = molecular target: IL-8 (human) (UniProt P10145); test: sandwich microarray in flow cell, chemiluminescence, cytokine 1 ng/ml, divided by chip-specific PNA calibration factor; Chip 3
[21] = molecular target: IL-8 (human) (UniProt P10145); test: sandwich microarray in flow cell, chemiluminescence, cytokine 1 ng/ml; Chip 3
[22] = molecular target: IL-8 (human) (UniProt P10145); test: sandwich microarray in flow cell, chemiluminescence, cytokine 1 ng/ml; Chip 1
[23] = molecular target: IL-8 (human) (UniProt P10145); test: sandwich microarray in flow cell, chemiluminescence, cytokine 1 ng/ml, divided by chip-specific PNA calibration factor; Chip 5
[24] = molecular target: IL-8 (human) (UniProt P10145); test: sandwich microarray in flow cell, chemiluminescence, cytokine 1 ng/ml; Chip 5
[25] = molecular target: IL-12p40 (human) (UniProt P29460); test: sandwich microarray in flow cell, chemiluminescence, cytokine 1 ng/ml; Chip 2
[26] = molecular target: IL-12p40 (human) (UniProt P29460); test: sandwich microarray in flow cell, chemiluminescence, cytokine 1 ng/ml, divided by chip-specific PNA calibration factor; Chip 1
[27] = molecular target: IL-12p40 (human) (UniProt P29460); test: sandwich microarray in flow cell, chemiluminescence, cytokine 1 ng/ml; AVG of Chips 1-5
[28] = molecular target: IL-12p40 (human) (UniProt P29460); test: sandwich microarray in flow cell, chemiluminescence, cytokine 1 ng/ml, divided by chip-specific PNA calibration factor; Chip 4
[29] = molecular target: IL-12p40 (human) (UniProt P29460); test: sandwich microarray in flow cell, chemiluminescence, cytokine 1 ng/ml, divided by chip-specific PNA calibration factor; AVG of Chips 1-5
[30] = molecular target: IL-12p40 (human) (UniProt P29460); test: sandwich microarray in flow cell, chemiluminescence, cytokine 1 ng/ml, divided by chip-specific PNA calibration factor; Chip 2
[31] = molecular target: IL-12p40 (human) (UniProt P29460); test: sandwich microarray in flow cell, chemiluminescence, cytokine 1 ng/ml; Chip 4
[32] = molecular target: IL-12p40 (human) (UniProt P29460); test: sandwich microarray in flow cell, chemiluminescence, cytokine 1 ng/ml, divided by chip-specific PNA calibration factor; Chip 3
[33] = molecular target: IL-12p40 (human) (UniProt P29460); test: sandwich microarray in flow cell, chemiluminescence, cytokine 1 ng/ml; Chip 3
[34] = molecular target: IL-12p40 (human) (UniProt P29460); test: sandwich microarray in flow cell, chemiluminescence, cytokine 1 ng/ml; Chip 1
[35] = molecular target: IL-12p40 (human) (UniProt P29460); test: sandwich microarray in flow cell, chemiluminescence, cytokine 1 ng/ml, divided by chip-specific PNA calibration factor; Chip 5
[36] = molecular target: IL-12p40 (human) (UniProt P29460); test: sandwich microarray in flow cell, chemiluminescence, cytokine 1 ng/ml; Chip 5

UniProt P10145, sequence (P10145 28-99 limits assumed): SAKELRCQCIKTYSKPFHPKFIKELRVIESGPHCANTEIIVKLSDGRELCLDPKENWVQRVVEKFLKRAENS
UniProt P29460, sequence (P29460 23-328 limits assumed): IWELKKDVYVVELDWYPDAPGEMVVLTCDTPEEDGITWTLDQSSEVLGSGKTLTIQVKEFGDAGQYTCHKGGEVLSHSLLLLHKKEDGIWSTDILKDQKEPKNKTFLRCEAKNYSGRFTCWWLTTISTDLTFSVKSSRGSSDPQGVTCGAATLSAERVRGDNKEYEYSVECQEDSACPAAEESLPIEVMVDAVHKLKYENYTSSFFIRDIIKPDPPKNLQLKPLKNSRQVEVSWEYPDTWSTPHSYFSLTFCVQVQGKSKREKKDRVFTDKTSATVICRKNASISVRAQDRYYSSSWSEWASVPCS
UniProt P22301, sequence (P22301 19-178 limits assumed): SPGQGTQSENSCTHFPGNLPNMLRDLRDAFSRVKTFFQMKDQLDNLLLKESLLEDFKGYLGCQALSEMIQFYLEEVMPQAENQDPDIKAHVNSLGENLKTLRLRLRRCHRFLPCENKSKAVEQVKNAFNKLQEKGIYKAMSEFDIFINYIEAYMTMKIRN

- chemiluminescent spot intensity (Un-Calibrated Data) [1]: 389
- chemiluminescent spot intensity (Calibrated Data) [2]: 1320
- chemiluminescent spot intensity (Un-Calibrated Data) [3]: 691
- chemiluminescent spot intensity (Calibrated Data) [4]: 1120
- chemiluminescent spot intensity (Calibrated Data) [5]: 1280
- chemiluminescent spot intensity (Calibrated Data) [6]: 1330
- chemiluminescent spot intensity (Un-Calibrated Data) [7]: 508
- chemiluminescent spot intensity (Calibrated Data) [8]: 1360
- chemiluminescent spot intensity (Un-Calibrated Data) [9]: 1360
- chemiluminescent spot intensity (Un-Calibrated Data) [10]: 788
- chemiluminescent spot intensity (Calibrated Data) [11]: 1280
- chemiluminescent spot intensity (Un-Calibrated Data) [12]: 414
Substance: MAb IL-10 (monoclonal capture antibody of the anti-human IL-10 OptEIA matched pair, BD Biosciences-Pharmingen)

- chemiluminescent spot intensity (Un-Calibrated Data) [13]: 804
- chemiluminescent spot intensity (Calibrated Data) [14]: 2960
- chemiluminescent spot intensity (Un-Calibrated Data) [15]: 1580
- chemiluminescent spot intensity (Calibrated Data) [16]: 2900
- chemiluminescent spot intensity (Calibrated Data) [17]: 2900
- chemiluminescent spot intensity (Calibrated Data) [18]: 2750
- chemiluminescent spot intensity (Un-Calibrated Data) [19]: 1320
- chemiluminescent spot intensity (Calibrated Data) [20]: 3100
- chemiluminescent spot intensity (Un-Calibrated Data) [21]: 3100
- chemiluminescent spot intensity (Un-Calibrated Data) [22]: 1760
- chemiluminescent spot intensity (Calibrated Data) [23]: 2790
- chemiluminescent spot intensity (Un-Calibrated Data) [24]: 905
Substance: MAb IL-8 (monoclonal capture antibody of the anti-human IL-8 OptEIA matched pair, BD Biosciences-Pharmingen)

- chemiluminescent spot intensity (Un-Calibrated Data) [25]: 79
- chemiluminescent spot intensity (Calibrated Data) [26]: 300
- chemiluminescent spot intensity (Un-Calibrated Data) [27]: 156
- chemiluminescent spot intensity (Calibrated Data) [28]: 275
- chemiluminescent spot intensity (Calibrated Data) [29]: 285
- chemiluminescent spot intensity (Calibrated Data) [30]: 270
- chemiluminescent spot intensity (Un-Calibrated Data) [31]: 125
- chemiluminescent spot intensity (Calibrated Data) [32]: 312
- chemiluminescent spot intensity (Un-Calibrated Data) [33]: 312
- chemiluminescent spot intensity (Un-Calibrated Data) [34]: 179
- chemiluminescent spot intensity (Calibrated Data) [35]: 268
- chemiluminescent spot intensity (Un-Calibrated Data) [36]: 87
Substance: MAb IL-12p40 (monoclonal capture antibody of the anti-human IL-12p40 OptEIA matched pair, BD Biosciences-Pharmingen)
